Assay results reported in article PMC12442443, “Identifying interactions between TDP‐43's N‐terminal and RNA‐binding domains” (Protein Science : A Publication of the Protein Society, 2024).

Assays:
[1] = biological target: TDP-43 1-260 (NTD-RRM1-RRM2) (Homo sapiens, UniProt Q13148); test: MST; apparent Kd; NMR: 40 mM HEPES pH 6.5, 300 mM NaCl, 4 mM DTT, 25 C, 25 uM protein; EMSA: same buffer, 25 C incubation, 6.25% PAGE 0.5x TBE at 4 C; MST and HTRF buffers not in material; conditions: protein: recombinant; tags: His (MST: NT-647 labelled HisTDP-43; tag cleaved when needed); single strand
[2] = biological target: TDP-43 1-102 (NTD) (Homo sapiens, UniProt Q13148); test: HTRF; ligand (UG)6 per legend; Methods heading names biotin (UG)4; NMR: 40 mM HEPES pH 6.5, 300 mM NaCl, 4 mM DTT, 25 C, 25 uM protein; EMSA: same buffer, 25 C incubation, 6.25% PAGE 0.5x TBE at 4 C; MST and HTRF buffers not in material; conditions: protein: recombinant; tags: His; single strand
[3] = biological target: TDP-43 102-260 (RRM1-RRM2) (Homo sapiens, UniProt Q13148); test: MST; apparent Kd; NMR: 40 mM HEPES pH 6.5, 300 mM NaCl, 4 mM DTT, 25 C, 25 uM protein; EMSA: same buffer, 25 C incubation, 6.25% PAGE 0.5x TBE at 4 C; MST and HTRF buffers not in material; conditions: protein: recombinant; tags: His (MST: NT-647 labelled HisTDP-43; tag cleaved when needed); single strand
TDP-43 102-260 (RRM1-RRM2), sequence (Q13148 102-260): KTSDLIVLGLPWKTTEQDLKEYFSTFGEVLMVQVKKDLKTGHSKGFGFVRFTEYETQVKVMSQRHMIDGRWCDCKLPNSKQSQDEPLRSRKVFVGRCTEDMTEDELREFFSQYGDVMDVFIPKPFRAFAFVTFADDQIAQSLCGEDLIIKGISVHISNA

TDP-43 1-260 (NTD-RRM1-RRM2), sequence (Q13148 1-260): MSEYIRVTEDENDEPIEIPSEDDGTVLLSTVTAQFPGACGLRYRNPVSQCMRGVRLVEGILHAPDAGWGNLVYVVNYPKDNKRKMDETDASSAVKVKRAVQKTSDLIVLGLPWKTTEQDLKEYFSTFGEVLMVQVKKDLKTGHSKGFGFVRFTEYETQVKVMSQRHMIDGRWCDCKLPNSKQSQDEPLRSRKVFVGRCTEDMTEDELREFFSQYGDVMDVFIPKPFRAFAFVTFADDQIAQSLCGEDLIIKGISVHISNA
TDP-43 1-102 (NTD), sequence (Q13148 1-102): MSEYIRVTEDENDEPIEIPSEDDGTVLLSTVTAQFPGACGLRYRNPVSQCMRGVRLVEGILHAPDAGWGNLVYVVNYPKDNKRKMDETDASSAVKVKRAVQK

Binder	Kd [1] [nM]	binding result [2]	Kd [3] [nM]
UGUGUGUG (ssRNA) [(UG)4]	246		
UGUGUGUGUGUG (ssRNA) [(UG)6 HTRF ligand]		no binding	
UGUGUGUGUGUG (ssRNA) [(UG)6]	28.4		39.8
